The results in this text go back to the Immune Epitope Database (IEDB).

In general, IC50 refers to the concentration that inhibits the measured activity by half.

Holding throughout (assay): IEDB peptide-MHC binding, purified MHC/competitive/radioactivity; ≥ and ≤ were set here for values at or beyond the usual limits of such assays
Assay [1] concerns the target HLA-A*02:01.
Assay [2] deals with HLA-A*02:02.
Assay [3] addresses HLA-A*02:06.
For assay [4], the target named is HLA-A*02:03.
The target of assay [5] is HLA-A*68:02.
Where [6] appears, read: source organism: Vaccinia virus WR.

In the case of ILYYGANGST, the IC50 stood at 290 nM in assay [1] (setting [6]); 341 nM in assay [2] (setting [6]); 1840 nM in assay [3] (setting [6]); 39 nM in assay [4] (setting [6]); 3830 nM in assay [5] (setting [6]).

With IMAFILGII, the IC50 in assay [1] (setting [6]) turned out to be 166 nM; in assay [2] (setting [6]) it was 17 nM; in assay [3] (setting [6]) it was 175 nM; in assay [4] (setting [6]) it was 30 nM; in assay [5] (setting [6]), 2520 nM.

On to IMDKEQLLKI, for which the IC50 in assay [1] (setting [6]) came to 890 nM; in assay [2] (setting [6]), 311 nM; in assay [3] (setting [6]), 1340 nM; in assay [4] (setting [6]), 288 nM; in assay [5] (setting [6]), 3240 nM.

On to IMETIDPVYI, for which the IC50 in assay [1] (setting [6]) came to 127 nM; in assay [2] (setting [6]), 29 nM; in assay [3] (setting [6]) it was 349 nM; in assay [4] (setting [6]), 239 nM; in assay [5] (setting [6]) it was 821 nM.

With IMFMLIFNV, the IC50 came out at 12 nM in assay [1] (setting [6]); 0.15 nM in assay [2] (setting [6]); 13 nM in assay [3] (setting [6]); 10 nM in assay [4] (setting [6]); 13 nM in assay [5] (setting [6]).

For the sequence IMQVFFGYFA, the IC50 is 290 nM in assay [1] (source organism: SARS-CoV1); 590 nM in assay [2] (source organism: SARS-CoV1); 51 nM in assay [3] (source organism: SARS-CoV1); 1570 nM in assay [4] (source organism: SARS-CoV1); 4500 nM in assay [5] (source organism: SARS-CoV1).

On to IMRVMANNV, for which the half-maximal inhibitory concentration (IC50) in assay [1] (setting [6]) was 311 nM; in assay [2] (setting [6]), 396 nM; in assay [3] (setting [6]), 2500 nM; in assay [4] (setting [6]), 1260 nM; in assay [5] (setting [6]), 1180 nM.

Turning to IMSIGFEARI, the IC50 in assay [1] (setting [6]) came out at 1590 nM; in assay [2] (setting [6]), 703 nM; in assay [3] (setting [6]) it was 1600 nM; in assay [4] (setting [6]), 1500 nM; in assay [5] (setting [6]), 61 nM.

In the case of IMSMMNITRL, the IC50 in assay [1] (setting [6]) amounted to 284 nM; in assay [2] (setting [6]) it was 62 nM; in assay [3] (setting [6]), 585 nM; in assay [4] (setting [6]) it was 106 nM; in assay [5] (setting [6]), 119 nM.

Take IMTSTRTIIL: the half-maximal inhibitory concentration (IC50) in assay [1] (setting [6]) was 540 nM; in assay [2] (setting [6]), 1020 nM; in assay [3] (setting [6]), 438 nM; in assay [4] (setting [6]) it was 52 nM; in assay [5] (setting [6]), 91 nM.

For the sequence IQYRQQLEL, the IC50 in assay [1] (setting [6]) came to 258 nM; in assay [2] (setting [6]) it was 511 nM; in assay [3] (setting [6]), 41 nM; in assay [4] (setting [6]), 45 nM; in assay [5] (setting [6]), 3570 nM.

Take ITAIYVFCI: the IC50 worked out at 127 nM in assay [1] (source organism: SARS-CoV1); 29 nM in assay [2] (source organism: SARS-CoV1); 132 nM in assay [3] (source organism: SARS-CoV1); 89 nM in assay [4] (source organism: SARS-CoV1); 272 nM in assay [5] (source organism: SARS-CoV1).

For ITDNGPMPYM, the IC50 in assay [1] (setting [6]) was determined as 473 nM; in assay [2] (setting [6]) it was 828 nM; in assay [3] (setting [6]), 303 nM; in assay [4] (setting [6]), 1180 nM; in assay [5] (setting [6]) it was 473 nM.

Take ITMTTVYHI: the IC50 was 8.2 nM in assay [1] (source organism: SARS-CoV1); 19 nM in assay [2] (source organism: SARS-CoV1); 2.3 nM in assay [3] (source organism: SARS-CoV1); 7.2 nM in assay [4] (source organism: SARS-CoV1); 6.1 nM in assay [5] (source organism: SARS-CoV1).

Take ITTLLNETA: the IC50 in assay [1] (setting [6]) was found to be 635 nM; in assay [2] (setting [6]), 414 nM; in assay [3] (setting [6]), 596 nM; in assay [4] (setting [6]), 936 nM; in assay [5] (setting [6]) it was 70 nM.

On to ITYCLVTHM, for which the IC50 is 3100 nM in assay [1] (setting [6]); 1280 nM in assay [2] (setting [6]); 1410 nM in assay [3] (setting [6]); 2330 nM in assay [4] (setting [6]); 1730 nM in assay [5] (setting [6]).

With IVAALVFLI, the IC50 in assay [1] (source organism: SARS-CoV1) was 2.1 nM; in assay [2] (source organism: SARS-CoV1), 0.14 nM; in assay [3] (source organism: SARS-CoV1), 1.8 nM; in assay [4] (source organism: SARS-CoV1), 15 nM; in assay [5] (source organism: SARS-CoV1), 0.58 nM.

For IVAAVIIMAI, the IC50 in assay [1] (setting [6]) was 4430 nM; in assay [2] (setting [6]) it was 727 nM; in assay [3] (setting [6]) it was 4510 nM; in assay [4] (setting [6]) it was 2610 nM; in assay [5] (setting [6]), 95 nM.

Take IVAMLLTHGA: the IC50 in assay [1] (setting [6]) worked out at 4910 nM; in assay [2] (setting [6]) it was 1160 nM; in assay [3] (setting [6]), 82 nM; in assay [4] (setting [6]) it was 153 nM; in assay [5] (setting [6]), 505 nM.

As to IVCIVAAVII, the IC50 in assay [1] (setting [6]) came out at 1960 nM; in assay [2] (setting [6]), 1460 nM; in assay [3] (setting [6]), 3550 nM; in assay [4] (setting [6]), 1590 nM; in assay [5] (setting [6]), 2980 nM.

As to IVDSMIIGHI, the IC50 in assay [1] (setting [6]) was 1060 nM; in assay [2] (setting [6]), 507 nM; in assay [3] (setting [6]) it was 561 nM; in assay [4] (setting [6]), 208 nM; in assay [5] (setting [6]), 53 nM.

Take IVDTVSALV: the IC50 in assay [1] (source organism: SARS-CoV1) was determined as 58 nM; in assay [2] (source organism: SARS-CoV1), 17 nM; in assay [3] (source organism: SARS-CoV1), 43 nM; in assay [4] (source organism: SARS-CoV1) it was 528 nM; in assay [5] (source organism: SARS-CoV1), 301 nM.

In the case of IVILFIMFM, the IC50 in assay [1] (setting [6]) was 576 nM; in assay [2] (setting [6]), 1860 nM; in assay [3] (setting [6]), 741 nM; in assay [4] (setting [6]), 1680 nM; in assay [5] (setting [6]) it was 667 nM.

For the sequence IVNCLSLSNL, the IC50 in assay [1] (setting [6]) came out at 1930 nM; in assay [2] (setting [6]) it was 338 nM; in assay [3] (setting [6]), 1280 nM; in assay [4] (setting [6]), 128 nM; in assay [5] (setting [6]), 3590 nM.
